Measurements as given in patent EP1165135B1 (City of Hope, dated 2004).
Changes are numbered by the printed parent chain.

B1: human RXRα (9-cis retinoic acid receptor), full-length, wild type (receptor, UniProt P19793 1-462, looked up)
chain: MDTKHFLPLDFSTQVNSSLTSPTGRGSMAAPSLHPSLGPGIGSPGQLHSPISTLSSPINGMGPPFSVISSPMGPHSMSVPTTPTLGFSTGSPQLSSPMNPVSSSEDIKPPLGLNGVLKVPAHPSGNMASFTKHICAICGDRSSGKHYGVYSCEGCKGFFKRTVRKDLTYTCRDNKDCLIDKRQRNRCQYCRYQKCLAMGMKREAVQEERQRGKDRNENEVESTSSANEDMPVERILEAELAVEPKTETYVEANMGLNPSSPNDPVTNICQAADKQLFTLVEWAKRIPHFSELPLDDQVILLRAGWNELLIASFSHRSIAVKDGILLATGLHVHRNSAHSAGVGAIFDRVLTELVSKMRDMQMDKTELGCLRAIVLFNPDSKGLSNPAEVEALREKVYASLEAYCKHKYPEQPGRFAKLLLRLPALRSIGLKCLEHLFFFKLIGDTPIDTFLMEMLEAPHQMT
notes: mature; also called wild-type RXR
B2: RXRm, human RXRα with the point mutation Asp 322→Pro in the ligand binding domain (receptor, UniProt P19793 1-462, looked up)
chain: B1 chain with D322P
notes: mature; Claim 9 prints Asp332→Pro; also called mutant RXR; RXR mutant

Columns and labels:
[1] = molecular target: T1, rat FXR (farnesoid X-activated receptor), full-length (rat, UniProt Q62735 1-469); assay: electrophoretic mobility shift, in vitro translated FXR + RXR on EcRE probe
T1 construct: mature; Full-length protein cloned into pCMX and translated in vitro for the mobility shift assays; also called bile acid nuclear receptor
T1 sequence (looked up): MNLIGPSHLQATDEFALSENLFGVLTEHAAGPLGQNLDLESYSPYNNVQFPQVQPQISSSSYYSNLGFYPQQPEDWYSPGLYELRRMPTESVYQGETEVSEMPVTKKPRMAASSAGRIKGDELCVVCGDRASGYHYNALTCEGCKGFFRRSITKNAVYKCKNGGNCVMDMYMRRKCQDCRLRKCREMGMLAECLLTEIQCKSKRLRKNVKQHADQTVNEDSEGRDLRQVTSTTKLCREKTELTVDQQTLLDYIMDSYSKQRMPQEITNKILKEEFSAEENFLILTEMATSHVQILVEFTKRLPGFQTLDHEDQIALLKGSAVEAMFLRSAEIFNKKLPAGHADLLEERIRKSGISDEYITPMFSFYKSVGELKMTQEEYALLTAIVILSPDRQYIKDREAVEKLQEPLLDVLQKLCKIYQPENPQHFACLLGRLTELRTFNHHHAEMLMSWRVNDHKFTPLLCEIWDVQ

[2] = molecular target: T2, GST-GRIP1, the three receptor interaction domains of mouse GRIP1 (Arg 625 - Lys 765) fused to … (mouse, UniProt Q61026 625-765); assay: electrophoretic mobility shift, DR1 probe, LG268 0-1000 nM
T2 construct: Expressed in E. coli and purified on glutathione-sepharose; also called CoA; not shown: glutathione-S-transferase (GST)
T2 sequence (looked up): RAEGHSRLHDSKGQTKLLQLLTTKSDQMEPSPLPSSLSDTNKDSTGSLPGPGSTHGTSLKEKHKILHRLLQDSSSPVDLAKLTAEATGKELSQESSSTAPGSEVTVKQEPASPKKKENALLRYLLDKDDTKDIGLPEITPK

[3] = molecular target: T2, GST-GRIP1, the three receptor …; assay: phosphorimager quantitation of the mobility shift autoradiogram against LG268 concentration (Figure 4)
[4] = molecular target: T1, rat FXR (farnesoid X-activated …); assay: DNA binding as a heterodimer (Figure 5 and data not shown)

binding result [1] | fold decrease in potency of coactivator recruitment compared to wild type RXR [2] [fold] | fold higher ligand concentration required for recruitment of coactivator (against wild-type RXR) [3] [fold] | binding result [4] | Binder
binds | – | – | – | B1
– | 100 | ~100 | binds | B2
